# In patent US20250027068A1 (published 2025):
# Positions count from the first letter of the chain named.
# B1: PRT-426 (enzyme)
# chain: MTITSVWTKGVTPPTPEDFRYNNEDVLHAPYVANQGWYDITKTFDGKDNLLCGAATAGNMLHWWFDQNKEEIERYLKKHPEKQKIIFNNQELFDVKAAIDTKDSQTNSKLFNYFRDKAFPNLSARQLGVFPDLVLDMFINGYYLNLGKTQSTDVNRPYQDKDKRGGIFDAVFTRGDQTTLLTARHDLKNKGLNEISDLIKQELTEGKALALSHTYANVRINHVINLWGADFDAEGNLIAIYVTDSDANASIGMKKYFVGVNANGKVAISAKKIEGDNIGAQVLGLFTLSTGQDIWQKLS
# B2: PRT-427 (enzyme)
# chain: B1 chain with F130M, D176V
# B3: PRT-419 (enzyme)
# chain: B1 chain with F130M, I294Q
# B4: PRT-444 (enzyme)
# chain: MSQTEDSESLQRLRDIEDFQAEKKKQNVVYTKWLDGVDVKDHDFRKIVDGNIAYYATPLLNGRGFYDINKDFNRDSDKCAAAVAANMFHYWLDRNRDNVDRFLRQNPEKHGIIELPDGQLKLSDFLNTYESDDGYRDKSKLFDFISNNFNKPVWTDKLLDNYINGYAYNYKYGRTIEDPTKNTSKINFFKEVFNEKILTNNHSIRNQNEFSVLLSEALYTGKAIGLSYGPAGLRHSLGHIISVWGADLDADGNVVAIYVTDSDDKKLTIGDERVGLKRYKISTDDEGRLRLTAYEETHNTGGQIRGLWTLDTGKQAWADYFDKTEQTGTDQAEQ
# B5: PRT-395 (enzyme)
# chain: MVTSVWTKGVTPPADFTQGEDVFHAPYVANQGWYDITKTFNGKDDLLCGAATAGNMLHWWFDQNKEYIEAYLKKHPEKQKIMFGDQELLDVRKAINTKGSQKNSELFNYFRDKAFPTLSARRLGVMPDLVLDMFINGYYLNVTKTQTTDVNRTYQEKDKRGGIFDAVFTRGDQSKLLTSRHDFKEKGLKEISDLIKQELTEGKALGLSHTYANVRINHVINLWGADFDSDGNLKAIYVTDSDSNASIGMKKYFVGVNSAGKVAISAKEIKEDNIGAQVLGLFTLSTGQDIWNQTN
# B6: PRT-411 (enzyme)
# chain: B5 chain with T117N, N244R
# B7: PRT-396 (enzyme)
# chain: B5 chain with T117N, Y211T
# B8: PRT-403 (enzyme)
# chain: B5 chain with T117N, N217S
# B9: PRT-379 (enzyme)
# chain: MVTSVWTKGVTPPTNFTYGEDVLHAPYVANQGWYDITKTFNGKDDLLCGAATAGNMLHWWFDQNKEQIENYLKKHPEKQKINFNGEQMFDVKEAIDTKDSQLDSKLFEYFKEKAFPYLSTKHLGVFPDHVIDMFINGYRLSLLNHGPTPVKRGSKDPRGGIFDAVFTRGDQSKLLTNRHDFKEKTLKEISDLIKQELTEGKALGISHTYANVRINHVINLWGADFDAEGNLEAIYVTDSDSNASIGMKKYFVGVNSNGKVAISAKEIEEDNIGAQVLGLFTLSTGQDIWNQTN
# B10: PRT-388 (enzyme)
# chain: B9 chain with D45T, L143T
# B11: PRT-387 (enzyme)
# chain: B9 chain with L143T, N257S
# B12: PRT-380 (enzyme)
# chain: B9 chain with L143T, V212A
# Biological target: pooled human IgG (human IgG1, 2, 3 and 4) (human)
# Experiment: cell-based or functional assay
# Further: test concentration or dose not given here.
Binder,Enzyme Activity Endpoint Assay: Fab′2 [ng/µL],Enzyme Activity Endpoint Assay: Fc [ng/µL],Enzyme Activity Endpoint Assay: IgG [ng/µL],Enzyme Activity Endpoint Assay: scIgG [ng/µL]
B1,508,283,243,0
B2,537,352,135,139
B3,528,298,183,0
B4,494,321,0,286
B5,544,358,0,204
B6,519,341,90,155
B7,0,92,1010,215
B8,569,332,166,40
B9,599,370,0,226
B10,481,338,34,222
B11,605,366,0,242
B12,66,258,219,702
